# From patent US10568344B2, “Methods of improving animal performance” (Novozymes A/S, priority 2015, dated 2020)
# Where two headings read alike, the source gives them in different places. Marks after values point to notes of the source that are not given here.
# Legend:
# Clostridiales = assay: Microbiota analysis of broiler trial 4 (16S rRNA), Clostridiales; type: in vivo, chicken; set-up: key to Observed shift compared to the control group, Significance: Significant change (+++), padj < 0.05; Numerical change (+); settings: 50 ppm
# [1] = test system: Clostridium perfringens DSM756; type: cell-based; settings: for Diameter of zone of incomplete inhibition of growth visible after MTT coloring: 100 μg/ml; for Diameter of clearing zone: lysozymes 100 μg/ml, bacitracin 50 μg/ml
# chicken gut microbiota = assay: Microbiota analysis of broiler trial 4 (16S rRNA), overall composition; type: in vivo; settings: 50 ppm; ceca content
# [2] = test system: Exiguobacterium undae (DSM14481); assay: Lysozyme activity turbidity assay (optical density drop); type: biochemical; settings: pH 5
# [3] = In vivo broiler trial 2, growth performance; set-up: species or system male broiler chickens
# Description: No additional enzymes (e.g. phytase) were added to the feed. The experimental diets (Starter and Grower) were based on soybean meal, wheat and rye (12%) as main ingredients (Table 6). The diets were formulated to contain 222 g crude protein and 12.5 MJ/kg MEN for the starter period and 204 g crude protein and 12.7 MJ/kg MEN for the grower period.
# [4] = In vivo broiler trial 1, growth performance; set-up: species or system male broiler chickens (ROSS PM3)
# [5] = Grower (d 22-36), 6.25 mg/kg feed
# [6] = Grower (d 22-36), 12.5 mg/kg feed
# [7] = Grower (d 22-36), 25 mg/kg feed
# [8] = Starter (d 1-22), 6.25 mg/kg feed
# [9] = Starter (d 1-22), 12.5 mg/kg feed
# [10] = Starter (d 1-22), 25 mg/kg feed
# [11] = Whole period (d 1-36), 6.25 mg/kg feed
# [12] = Whole period (d 1-36), 12.5 mg/kg feed
# [13] = Whole period (d 1-36), 25 mg/kg feed
# [14] = Grower (d 22-36), 50 mg/kg feed
# [15] = Grower (d 22-36), 100 mg/kg feed
# [16] = Grower (d 22-36), 200 mg/kg feed
# [17] = Starter (d 1-22), 50 mg/kg feed
# [18] = Starter (d 1-22), 100 mg/kg feed
# [19] = Starter (d 1-22), 200 mg/kg feed
# [20] = Whole period (d 1-36), 50 mg/kg feed
# [21] = Whole period (d 1-36), 100 mg/kg feed
# [22] = Whole period (d 1-36), 200 mg/kg feed
molecule,measurement,setting,value
"SEQ ID NO: 1: mature amino acid sequence of a wild type GH25 lysozyme from Acremonium alcalophilum with N-terminal SPIRR (protein, Wild type sequence with N-terminal SPIRR) SPIRRRIPGFDISGWQPTTDFARAYANGDRFVYIKATEGTTFKSSAFSRQYTGATQNGFIRGAYHFAQPAASSGAAQARYFASNGGGWSKDGITLPGALDIEYNPNGATCYGLSQSAMVNWIEDFVTTYHGITSRWPVIYTTTDWWTQCTGNSNRFANRCPLWIARYASSVGTLPNGWGFYTFWQYNDKYPQGGDSNWFNGDASRLRALANGD","Observed shift compared to the control group, Significance",Clostridiales; Order level (Clostridiales),+
same,Clostridiales Change vs control,Clostridiales; order level,5.3792
same,Clostridiales Ratio vs control,Clostridiales; order level,1.1671
same,"Clostridiales abundance, Lysozyme treatment","Clostridiales; order level, ceca content",37.5638
same,Inhibition zone,"[1]; 1/10 MHB, pH7, both experiments",11-13 mm
same,Diameter of zone of incomplete inhibition of growth visible after MTT coloring,"[1]; Experiment 1, 1/2 MHB pH 6",20 mm
same,Diameter of clearing zone,"[1]; Experiment 1, 1/2 MHB pH 6",6 mm
same,Diameter of clearing zone,"[1]; Experiment 1, 1/10 MHB pH 7",13 mm
same,Diameter of zone of incomplete inhibition of growth visible after MTT coloring,"[1]; Experiment 2, 1/2 MHB pH 6",19 mm
same,Diameter of clearing zone,"[1]; Experiment 2, 1/2 MHB pH 6",4 mm
same,Diameter of clearing zone,"[1]; Experiment 2, 1/10 MHB pH 7",11 mm
same,Larger incomplete clearing zone,"[1]; ½ MHB, pH 6, after coloring with MTT",19-20 mm
same,Clearing zone diameter,"[1]; ½ MHB, pH 6, both experiments",4-6 mm
same,"Observed shift in the composition of the microbiota compared to the control group, Significance",chicken gut microbiota,"+++ (Significant change (+++), p-value < 0.05)"
same,Lysozyme activity as measured by Optical Density Drop,[2],+ (pH 5)
same,FCR,[3]; [5],1.753^a
same,"FCR, Relative to C (%)",[3]; [5],101.9%
same,Feed intake,[3]; [5],2705 g/b
same,"Feed intake, Relative to C (%)",[3]; [5],99.1%
same,Weight gain,[3]; [5],1545 g/b
same,"Weight gain, Relative to C (%)",[3]; [5],97.4%
same,FCR,[3]; [6],1.692^a
same,"FCR, Relative to C (%)",[3]; [6],98.3%
same,Feed intake,[3]; [6],2671 g/b
same,"Feed intake, Relative to C (%)",[3]; [6],97.8%
same,Weight gain,[3]; [6],1581 g/b
same,"Weight gain, Relative to C (%)",[3]; [6],99.7%
same,FCR,[3]; [7],1.686^a
same,"FCR, Relative to C (%)",[3]; [7],98%
same,Feed intake,[3]; [7],2753 g/b
same,"Feed intake, Relative to C (%)",[3]; [7],100.8%
same,Weight gain,[3]; [7],1633 g/b
same,"Weight gain, Relative to C (%)",[3]; [7],102.9%
same,FCR,[3]; [8],1.403^ab
same,"FCR, Relative to C (%)",[3]; [8],101.8%
same,Feed intake,[3]; [8],1551^ab g/b
same,"Feed intake, Relative to C (%)",[3]; [8],105.4%
same,Weight gain,[3]; [8],1106 g/b
same,"Weight gain, Relative to C (%)",[3]; [8],103.6%
same,FCR,[3]; [9],1.339^b
same,"FCR, Relative to C (%)",[3]; [9],97.1%
same,Feed intake,[3]; [9],1403^d g/b
same,"Feed intake, Relative to C (%)",[3]; [9],95.4%
same,Weight gain,[3]; [9],1049 g/b
same,"Weight gain, Relative to C (%)",[3]; [9],98.3%
same,FCR,[3]; [10],1.332^b
same,"FCR, Relative to C (%)",[3]; [10],96.6%
same,Feed intake,[3]; [10],1434^cd g/b
same,"Feed intake, Relative to C (%)",[3]; [10],97.4%
same,Weight gain,[3]; [10],1076 g/b
same,"Weight gain, Relative to C (%)",[3]; [10],100.9%
same,FCR,[3]; [11],1.604^a
same,"FCR, Relative to C (%)",[3]; [11],101.6%
same,Feed intake,[3]; [11],4249 g/b
same,"Feed intake, Relative to C (%)",[3]; [11],101.4%
same,Weight gain,[3]; [11],2651 g/b
same,"Weight gain, Relative to C (%)",[3]; [11],99.9%
same,FCR,[3]; [12],1.548^bc
same,"FCR, Relative to C (%)",[3]; [12],98.1%
same,Feed intake,[3]; [12],4069 g/b
same,"Feed intake, Relative to C (%)",[3]; [12],97.1%
same,Weight gain,[3]; [12],2630 g/b
same,"Weight gain, Relative to C (%)",[3]; [12],99.1%
same,FCR,[3]; [13],1.543^c
same,"FCR, Relative to C (%)",[3]; [13],97.8%
same,Feed intake,[3]; [13],4181 g/b
same,"Feed intake, Relative to C (%)",[3]; [13],99.8%
same,Weight gain,[3]; [13],2709 g/b
same,"Weight gain, Relative to C (%)",[3]; [13],102.1%
same,Improvement of FCR compared to the control diet,"[3]; day 1 to day 36, 12.5 mg/kg",1.9%
same,Improvement of FCR compared to the control diet,"[3]; day 1 to day 36, 25 mg/kg",2.2%
same,Improvement of weight gain compared to C,"[3]; day 1 to day 36, 25 mg/kg",2.0%
same,Improvement of FCR compared to the control diet,"[3]; grower period, 25 mg/kg",2.0%
same,Improvement of weight gain compared to the control diet,"[3]; grower period, 25 mg/kg",2.9%
same,Improvement of weight gain compared to the control diet,"[3]; starter period, 6.25 mg/kg",3.6%
same,Improvement of FCR compared to the control diet,"[3]; starter period, 12.5 mg/kg",2.9%
same,Improvement of FCR compared to the control diet,"[3]; starter period, 25 mg/kg",3.4%
same,Improvement of FCR compared to the control diet,[4]; 25 mg/kg,3.3%
same,Improvement of FCR compared to the control diet,[4]; 50 mg/kg,2.9%
same,Improvement of FCR compared to the control diet,[4]; 100 mg/kg,3.2%
same,FCR,[4]; [7],1.676^c
same,"FCR, Relative to C (%)",[4]; [7],96.7%
same,Feed intake,[4]; [7],3004^ab g/b
same,"Feed intake, Relative to C (%)",[4]; [7],98.5%
same,Weight gain,[4]; [7],1792 g/b
same,"Weight gain, Relative to C (%)",[4]; [7],101.9%
same,FCR,[4]; [14],1.683^bc
same,"FCR, Relative to C (%)",[4]; [14],97.1%
same,Feed intake,[4]; [14],2939^ab g/b
same,"Feed intake, Relative to C (%)",[4]; [14],96.4%
same,Weight gain,[4]; [14],1747 g/b
same,"Weight gain, Relative to C (%)",[4]; [14],99.3%
same,FCR,[4]; [15],1.662^c
same,"FCR, Relative to C (%)",[4]; [15],95.8%
same,Feed intake,[4]; [15],2870^b g/b
same,"Feed intake, Relative to C (%)",[4]; [15],94.1%
same,Weight gain,[4]; [15],1729 g/b
same,"Weight gain, Relative to C (%)",[4]; [15],98.2%
same,FCR,[4]; [16],1.742^a
same,"FCR, Relative to C (%)",[4]; [16],100.5%
same,Feed intake,[4]; [16],2934^ab g/b
same,"Feed intake, Relative to C (%)",[4]; [16],96.2%
same,Weight gain,[4]; [16],1685 g/b
same,"Weight gain, Relative to C (%)",[4]; [16],95.7%
same,FCR,[4]; [10],1.781^ab
same,"FCR, Relative to C (%)",[4]; [10],98%
same,Feed intake,[4]; [10],1985 g/b
same,"Feed intake, Relative to C (%)",[4]; [10],99.5%
same,Weight gain,[4]; [10],1115 g/b
same,"Weight gain, Relative to C (%)",[4]; [10],101.3%
same,FCR,[4]; [17],1.793^ab
same,"FCR, Relative to C (%)",[4]; [17],98.7%
same,Feed intake,[4]; [17],1977 g/b
same,"Feed intake, Relative to C (%)",[4]; [17],99.1%
same,Weight gain,[4]; [17],1102 g/b
same,"Weight gain, Relative to C (%)",[4]; [17],100.1%
same,FCR,[4]; [18],1.723^bc
same,"FCR, Relative to C (%)",[4]; [18],94.9%
same,Feed intake,[4]; [18],1941 g/b
same,"Feed intake, Relative to C (%)",[4]; [18],97.3%
same,Weight gain,[4]; [18],1127 g/b
same,"Weight gain, Relative to C (%)",[4]; [18],102.4%
same,FCR,[4]; [19],1.696^c
same,"FCR, Relative to C (%)",[4]; [19],93.4%
same,Feed intake,[4]; [19],1946 g/b
same,"Feed intake, Relative to C (%)",[4]; [19],97.6%
same,Weight gain,[4]; [19],1148 g/b
same,"Weight gain, Relative to C (%)",[4]; [19],104.2%
same,FCR,[4]; [13],1.716^bc
same,"FCR, Relative to C (%)",[4]; [13],97.3%
same,Feed intake,[4]; [13],4991^ab g/b
same,"Feed intake, Relative to C (%)",[4]; [13],98.9%
same,Weight gain,[4]; [13],2908 g/b
same,"Weight gain, Relative to C (%)",[4]; [13],101.6%
same,FCR,[4]; [20],1.727^b
same,"FCR, Relative to C (%)",[4]; [20],97.9%
same,Feed intake,[4]; [20],4920^ab g/b
same,"Feed intake, Relative to C (%)",[4]; [20],97.5%
same,Weight gain,[4]; [20],2849 g/b
same,"Weight gain, Relative to C (%)",[4]; [20],99.6%
same,FCR,[4]; [21],1.686^c
same,"FCR, Relative to C (%)",[4]; [21],95.6%
same,Feed intake,[4]; [21],4815^b g/b
same,"Feed intake, Relative to C (%)",[4]; [21],95.4%
same,Weight gain,[4]; [21],2856 g/b
same,"Weight gain, Relative to C (%)",[4]; [21],99.8%
same,FCR,[4]; [22],1.722^b
same,"FCR, Relative to C (%)",[4]; [22],97.6%
same,Feed intake,[4]; [22],4877^ab g/b
same,"Feed intake, Relative to C (%)",[4]; [22],96.6%
same,Weight gain,[4]; [22],2832 g/b
same,"Weight gain, Relative to C (%)",[4]; [22],99%
same,Improvement of weight gain compared to the control diet,"[4]; day 1 to day 36, 25 mg/kg",1.6%
same,Improvement of FCR compared to the control diet,"[4]; starter period, 25 mg/kg",2.0%
same,Improvement of weight gain compared to the control diet,"[4]; starter period, 25 mg/kg",1.3%
same,Improvement of FCR compared to the control diet,"[4]; starter period, 100 mg/kg",5.1%
same,Improvement of weight gain compared to the control diet,"[4]; starter period, 100 mg/kg",2.4%
same,Improvement of FCR compared to the control diet,"[4]; starter period, 200 mg/kg",6.6%
same,Improvement of weight gain compared to the control diet,"[4]; starter period, 200 mg/kg",4.2%
